One experiment addresses HLA-A2 molecule (Homo sapiens, UniProt P04439, D140Y/D185E/D98H/E176V/E277Q/G131W/G231S/I119V/I121R/I166T/I218V/L300P/L318F/N151K/N90K/P208A/P217A/Q86G/Q94H/R138H/R169H/T345S). The settings on record: from the literature (Panagiotopoulos et al., 2003; Regner et al., 1996); cited from earlier work.
Experiment [1] deals with T1, human HLA-A2 MHC class I molecule (HLA-A*0201) on T2 cells (human).
T1 construct: Surface HLA-A2 was read with FITC anti-HLA-A2 mAb BB7.2; also called HLA-A2.1
In words: descriptor in the legend of an IFN-gamma ELISPOT figure (T2 cells as APC).

Experiment [2] addresses T1, human HLA-A2 MHC class I molecule …. Kind of experiment: peptide library screen; HLA-A2 restriction on T2 cells.

With KLQVFLIVL [PreproIAPP5-13], the “binding to HLA-A2” value with HLA-A2 molecule is on record as “HLA-A2-binding”.

Turning to VLFGLGFAI (also called murine IGRP 265-273) [mIGRP265-273 (VLFGLGFAI)], in experiment [1], the binding result is given as “binds”.

Consider ALIPYCVHM (also called murine IGRP 337-345) [mIGRP337-345 (ALIPYCVHM)], for which the binding result in experiment [1] is “binds”.

In the case of FGIDLLWSV (also called murine IGRP 228-236) [mIGRP228-236 (FGIDLLWSV)], the binding result in experiment [2] was “binds”.
